Measurements as given in publication PMC4824355, “Translocator Protein-Mediated Stabilization of Mitochondrial Architecture during Inflammation Stress in Colonic Cells” (PLoS ONE, 2016).
Where “and” joins values, the source holds several entries; their conditions need not be identical. Equal entries are not always repeated.

Target: the molecule itself
Assay: SDS-PAGE and immunoblot of detergent-solubilised mitochondrial membranes; HT-29 mitochondrial membranes solubilised in SDS or 0.1% DDM, 4%-12% Tris-glycine SDS-PAGE, anti-TSPO blot; cells untreated or treated with 10 ng/mL TNF, 1 uM PK 11195 or both for 24, 48 or 72 h

B1: translocator protein (18 kDa; tryptophan-rich sensory protein oxygen sensor, TSPO) (natural protein, human (endogenous in HT-29), UniProt P30536 1-169, looked up)
chain: MAPPWVPAMGFTLAPSLGCFVGSRFVHGEGLRWYAGLQKPSWHPPHWVLGPVWGTLYSAMGYGSYLVWKELGGFTEKAVVPLGLYTGQLALNWAWPPIFFGARQMGWALVDLLLVSGAAAATTVAWYQVSPLAARLLYPYLAWLAFTTTLNYCVWRDNHGWRGGRRLPE
notes: translocator protein (18 kDa), TSPO, human, endogenous in HT-29 colon carcinoma cells; Seen as monomer, dimer and trimer bands on an anti-TSPO blot; also called peripheral-type benzodiazepine receptor; mitochondrial translocator protein; source: endogenous, HT-29 mitochondrial membranes solubilised with SDS or 0.1% DDM
**Q.** With B1 as the protein, how does the “stoichiometry N” value read?
**A.** 3 and 2
